Test results as given in paper PMC3170320, “Minimal Antizyme Peptide Fully Functioning in the Binding and Inhibition of Ornithine Decarboxylase and Antizyme Inhibitor” (PLoS ONE, 2011).

B1: human ornithine decarboxylase, wild type (enzyme, UniProt P11926 1-461, looked up)
chain: MNNFGNEEFDCHFLDEGFTAKDILDQKINEVSSSDDKDAFYVADLGDILKKHLRWLKALPRVTPFYAVKCNDSKAIVKTLAATGTGFDCASKTEIQLVQSLGVPPERIIYANPCKQVSQIKYAANNGVQMMTFDSEVELMKVARAHPKAKLVLRIATDDSKAVCRLSVKFGATLRTSRLLLERAKELNIDVVGVSFHVGSGCTDPETFVQAISDARCVFDMGAEVGFSMYLLDIGGGFPGSEDVKLKFEEITGVINPALDKYFPSDSGVRIIAEPGRYYVASAFTLAVNIIAKKIVLKEQTGSDDEDESSEQTFMYYVNDGVYGSFNCILYDHAHVKPLLQKRPKPDEKYYSSSIWGPTCDGLDRIVERCDLPEMHVGDWMLFENMGAYTVAAASTFNGFQRPTIYYVMSGPAWQLMQQFQNPDFPPEVEEQDASTLPVSCAWESGMKRHRAACASASINV
notes: ornithine decarboxylase (ODC, EC 4.1.1.17), human, wild type; Kd was fitted with an A+B to AB model; also called ODC

Key:
[1] = biological target: B1; assay: cell-based or functional assay
[2] = biological target: T1, human antizyme inhibitor, wild type (human, UniProt O14977 1-448); assay: cell-based or functional assay
T1 sequence (looked up): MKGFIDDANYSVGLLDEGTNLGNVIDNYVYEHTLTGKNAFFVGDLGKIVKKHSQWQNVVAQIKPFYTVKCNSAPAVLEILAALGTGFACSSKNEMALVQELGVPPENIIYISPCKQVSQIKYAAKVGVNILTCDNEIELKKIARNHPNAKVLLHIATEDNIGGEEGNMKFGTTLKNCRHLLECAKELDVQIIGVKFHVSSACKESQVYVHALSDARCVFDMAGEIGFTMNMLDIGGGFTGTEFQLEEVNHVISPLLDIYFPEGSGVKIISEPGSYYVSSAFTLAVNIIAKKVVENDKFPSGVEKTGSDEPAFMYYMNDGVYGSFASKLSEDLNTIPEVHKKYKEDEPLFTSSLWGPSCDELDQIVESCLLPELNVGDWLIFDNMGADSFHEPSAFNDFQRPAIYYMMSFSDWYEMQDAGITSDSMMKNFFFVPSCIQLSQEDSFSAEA

[3] = biological target: T1, human antizyme inhibitor, wild type; assay: AUC; sedimentation velocity, 20°C; AZI fixed at 0.3 mg/mL, AZ or AZ peptide 0.05 to 0.24 mg/mL (molar ratio AZ/AZI 0.4 to 2.4); 30 mM Tris-HCl pH 7.4, 25 mM NaCl; global fit to the A+B to AB hetero-association model in SEDPHAT; conditions: both partners purified
[4] = biological target: B1; assay: AUC; sedimentation velocity, 42,000 rpm, 20°C; ODC fixed at 0.3 mg/mL, AZ or AZ peptide 0.015 to 0.2 mg/mL (molar ratio AZ/ODC 0.12 to 2); 30 mM Tris-HCl pH 7.4, 25 mM NaCl; global fit to the A+B to AB hetero-association model in SEDPHAT; conditions: both partners purified
[5] = biological target: the molecule itself; assay: as above

Row | Binder | IC50 of inhibition of ODC enzyme activity (ODC 0.19 µM), without AZI [1] [nM] | IC50 of inhibition of ODC enzyme activity with ODC pre-incubated with equimolar AZI (m1 as the enzyme) [2] [nM] | Kd [3] [nM] | Kd [4] [nM] | binding result [5]
1 | human antizyme peptide AZ_95-228 (domain or fragment) not shown | 160 | 570 | 24 ± 0.2 | 1500 ± 10 | –
2 | human antizyme peptide AZ_87-124 (domain or fragment) not shown | 520 | 1550 | 160 ± 1 | 12700 ± 280 | –
3 | human antizyme peptide AZ_100-228 (domain or fragment) not shown | 210 | 620 | 68 ± 0.7 | 5300 ± 30 | –
4 | human antizyme peptide AZ_100-176 (domain or fragment) not shown | 430 | 1420 | – | 10800 ± 70 | –
5 | human antizyme peptide AZ_95-135 (domain or fragment) not shown | 510 | 1590 | – | 10300 ± 70 | –
6 | human antizyme peptide AZ_95-124 (domain or fragment) not shown | 650 | 1980 | 280 ± 2 | 18600 ± 130 | –
7 | B1 | – | – | – | – | binds
8 | human antizyme peptide AZ_95-176 (domain or fragment) not shown | 200 | 680 | 60 ± 4 | 5600 ± 40 | –
9 | human antizyme, wild type (natural protein) not shown | 160 | 500 | 27 ± 0.1 | 710 ± 5 | –
